The source of these data is US20250346679A1 (INVOX PHARMA, published 2025).

Bounds are passed on as bounds.

Assay [1] concerns the target T1, biotinylated hPD-L1-Avi-His (Acro Biosystems, PD1-H82E5) (human, UniProt Q9NZQ7 19-238, biotinylated).
T1 construct: bought; also called Human PD-L1-His; not shown: Avi and His tags of the bought product
The assay can be described thus: SPR, antibody captured on Protein A chip, antigen in flow.

Assay [2] addresses T2, cPD-L1-His (Acro Biosystems, PD1-C52H4) (cynomolgus, UniProt Q9NZQ7 19-238 (human entry)).
T2 construct: bought; also called Cyno PD-L1-His; Cynomolgus PD-L1-His; not shown: His tag of the bought product
The assay is described as above.

Another assay addresses T3, cCD137-mFc-Avi (cynomolgus; mouse).
T3 construct: also called cynomolgus CD137-mFc-Avi; Cyno CD137-mFc-Avi; not shown: mouse IgG2a Fc domain (mIgG2a Fc)
T3 chain: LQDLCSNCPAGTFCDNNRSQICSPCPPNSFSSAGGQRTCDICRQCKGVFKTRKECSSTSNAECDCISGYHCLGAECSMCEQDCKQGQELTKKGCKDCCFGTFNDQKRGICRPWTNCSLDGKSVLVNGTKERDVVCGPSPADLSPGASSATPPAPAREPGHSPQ
The assay is described as follows: SPR, mAb^2 captured by anti-human Fab, antigen in flow, 1:1 Langmuir fit. The protocol:
(§1) An anti-human Fab capture antibody was immobilised on all four flow cells of a CM5 series S chip (GE Healthcare #BR-1005-30) to an average surface density of 6000 RU following the manufacturer's recommendations (GE Healthcare, human Fab capture Kit, #28958325). […] Each mAb² was captured to approximately 150 RU by injecting a 3 μg/ml solution of mAb² diluted in HBS-EP+ buffer (GE Healthcare #BR1006-69) for 60 seconds at 30 μl/min. Then different concentrations of human, cyno or mouse CD137 antigen (unbiotinylated human, cyno or mouse CD137-mFc-Avi or human CD137-Avi-His) in HBS-EP+ buffer were flowed over the chip for 3 min at 60 μl/min and then allowed to dissociate for 10 minutes. After each antigen concentration the chip was regenerated by infecting 10 mM glycine pH 2.1 at a flow rate of 30 μl/min for 30 seconds. Buffer HBS-EP+ was injected before the highest concentration of antigen and after the lowest concentration of antigen for reference subtraction, and one of the concentrations at random was repeated twice. The binding kinetics were fit with a 1:1 Langmuir model to generate equilibrium binding constants (KD) for each sample. Data analysis was performed with BiaEvaluation software version 3.2.
On the technique in general: SPR reads the build-up and loss of mass on a sensor chip optically.

For another assay, the target named is T4, hCD137-Avi-His (human, UniProt Q07011 24-186).
T4 construct: also called human CD137-Avi-His; monomeric human CD137
T4 sequence (Q07011 24-186): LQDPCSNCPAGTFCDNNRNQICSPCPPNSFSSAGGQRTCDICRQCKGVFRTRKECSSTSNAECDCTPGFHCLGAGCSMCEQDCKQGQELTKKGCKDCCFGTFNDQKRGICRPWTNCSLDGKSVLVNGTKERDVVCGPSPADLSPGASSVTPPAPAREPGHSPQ
Described as above. The method, then: as §1

The target of the next assay is T5, hCD137-mFc-Avi (human; mouse, UniProt Q07011 24-186, biotin on the Avi sequence where the biotinylated form was used).
T5 construct: also called human CD137-mFc-Avi; dimeric human CD137; not shown: mouse IgG2a Fc domain (mIgG2a Fc)
T5 sequence (Q07011 24-186): as above
The description is as above. The protocol: as §1

In the next assay the target is T6, human GITR (human, UniProt Q9Y5U5 26-161, limits assumed).
T6 sequence (looked up): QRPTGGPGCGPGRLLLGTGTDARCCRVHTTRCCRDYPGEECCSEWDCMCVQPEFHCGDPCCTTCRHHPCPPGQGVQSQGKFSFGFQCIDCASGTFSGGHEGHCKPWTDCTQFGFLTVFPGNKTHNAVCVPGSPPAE
The assay can be described thus: SPR, receptor amine-coupled to CM5 (~1000 RU). The protocol: (§2) The specificity of the anti-human CD137 Fcabs for human CD137 compared to other related TNFSFR family members was tested. 8 of the Fcabs were tested in mock mAb² (HeID1.3) format and measured by SPR in a Biacore T200 (GE Healthcare) by testing for binding to other human TNFRSF receptors: CD40, OX40 and GITR. Amine coupling (amine coupling kit, GE Healthcare, BR-1000-50) was used to coat human CD40, GITR and OX40 to approximately 1000 RU in Biacore CM5 chips (GE Healthcare, cat no 29149603). […] The chip was regenerated by injection of 10 mM glycine pH 2.5 for 12 s at 30 μl/min. Antibodies specific to the different TNFRSF members were used as positive controls to verify Biacore chip coating. Data was double reference subtracted and analysed using BIAevaluation 3.2 software.

The target of another assay is human CD40 (human, UniProt P25942 21-193, limits assumed). The assay can be described thus: SPR, receptor amine-coupled to CM5 (~1000 RU). The protocol: as §2
Chain of human CD40 (P25942 21-193 limits assumed): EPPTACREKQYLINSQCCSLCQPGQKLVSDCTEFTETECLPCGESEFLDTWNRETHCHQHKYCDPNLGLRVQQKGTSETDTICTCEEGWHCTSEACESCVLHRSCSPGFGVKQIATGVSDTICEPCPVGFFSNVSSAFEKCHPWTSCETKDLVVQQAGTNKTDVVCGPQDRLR
A further assay has as its target T7, human OX40 (human, UniProt P43489 29-216).
T7 sequence (looked up): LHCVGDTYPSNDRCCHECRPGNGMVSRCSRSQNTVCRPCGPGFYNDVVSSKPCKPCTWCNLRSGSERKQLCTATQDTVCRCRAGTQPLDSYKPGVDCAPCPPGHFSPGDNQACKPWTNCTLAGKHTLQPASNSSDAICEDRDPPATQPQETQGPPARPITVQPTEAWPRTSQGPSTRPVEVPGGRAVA
The assay can be described thus: SPR, receptor amine-coupled to CM5 (~1000 RU). The protocol: as §2

Assay [3] concerns the target human CD137, cell-surface (human, UniProt Q07011 24-255). The assay can be described thus: cell-based or functional assay.

Chain of human CD137, cell-surface (Q07011 24-255): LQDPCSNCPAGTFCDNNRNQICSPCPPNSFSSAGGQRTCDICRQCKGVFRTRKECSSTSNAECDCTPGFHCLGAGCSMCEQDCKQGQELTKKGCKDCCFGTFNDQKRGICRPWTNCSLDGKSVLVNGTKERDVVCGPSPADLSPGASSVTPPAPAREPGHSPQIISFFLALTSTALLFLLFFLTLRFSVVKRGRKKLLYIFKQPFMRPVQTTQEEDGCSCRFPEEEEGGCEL
T1 sequence (Q9NZQ7 19-238): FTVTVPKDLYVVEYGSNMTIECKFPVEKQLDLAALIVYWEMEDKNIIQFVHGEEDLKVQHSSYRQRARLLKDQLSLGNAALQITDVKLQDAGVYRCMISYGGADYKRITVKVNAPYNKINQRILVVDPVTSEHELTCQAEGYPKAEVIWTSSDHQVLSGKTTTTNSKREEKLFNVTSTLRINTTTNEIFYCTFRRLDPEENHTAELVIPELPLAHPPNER
T2 sequence (Q9NZQ7 other isoform, or with tags, fused parts or gaps): as the sequence (Q9NZQ7 19-238) above, with A33T, A34S, S62N, R68Q, Q82R, F173L, T185A, T192I, H215L counted along it

B1: G1-AA/lam-G02v3 (antibody, human IgG1, L234A L235A, V domains shown)
VH: EVQLVQSGAEVKRPGASVKVSCKASGYTFTSYGISWVRQAPGQGLEWMGWISAYSGGTNYAQKLQGRVTMTTDTSTSTAYMELRSLRSDDTAVYYCARDLFPTIFGVSYYYYWGQGTLVTVSS
VL: QSALTQPASVSGSPGQSITISCTGTSSDVGGYNYVSWYQQFPGKAPKLMIFEVTNRPSGVSDRFSGSKSDNTASLTISGLQAEDEAEYYCSSFKRGSTLVVFG
notes: anti-PD-L1 IgG1 with LALA, lambda light chain; also called G1-AA/lambdav3; G1-AA/Iam-G02v3
In the case of B1, the dissociation constant (Kd) (in general, the concentration at which binding is half-saturated) in [1] was found to be 1.34 nM; in assay [2] it was 2.45 nM.

B2: FS22-053-008/HeID1.3 (bispecific antibody, human IgG1, kappa)
heavy: QVQLQESGPGLVRPSQTLSLTCTVSGSTFSGYGVNWVRQPPGRGLEWIGMIWGDGNTDYNSALKSRVTMLVDTSKNQFSLRLSSVTAADTAVYYCARERDYRLDYWGQGSLVTVSSASTKGPSVFPLAPSSKSTSGGTAALGCLVKDYFPEPVTVSWNSGALTSGVHTFPAVLQSSGLYSLSSVVTVPSSSLGTQTYICNVNHKPSNTKVDKKVEPKSCDKTHTCPPCPAPELLGGPSVFLFPPKPKDTLMISRTPEVTCVVVDVSHEDPEVKFNWYVDGVEVHNAKTKPREEQYNSTYRVVSVLTVLHQDWLNGKEYKCKVSNKALPAPIEKTISKAKGQPREPQVYTLPPSRDELNPPYLFSNQVSLTCLVKGFYPSDIAVEWESNGQPENNYKTTPPVLDSDGSFFLYSKLTVDYWRWLEGNVFSCSVMHEALHNHYTQKSLSLSPG
light: DIQMTQSPASLSASVGETVTITCRASGNIHNYLAWYQQKQGKSPQLLVYNAKTLADGVPSRFSGSGSGTQYSLKINSLQPEDFGSYYCQHFWSTPRTFGGGTKLEIKRTVAAPSVFIFPPSDEQLKSGTASVVCLLNNFYPREAKVQWKVDNALQSGNSQESVTEQDSKDSTYSLSSTLTLSKADYEKHKVYACEVTHQGLSSPVTKSFNRGEC
notes: mock mAb^2; also called FS22-053-008 (mock mAb^2 format)
Regarding B2, the figures for the Kd in the assay with cCD137-mFc-Avi and with hCD137-mFc-Avi were 0.9 nM and 4.2 nM, respectively. Also, the “Human monomeric CD137 KD fold difference relative to human dimeric KD” value in the assay with hCD137-Avi-His came to 170 fold. Besides, the binding result with human GITR, with human CD40 and with human OX40 was “no binding (tested: 1 µM)” in each case. Besides, in assay [3], the “EC50, NF-κB luciferase assay, crosslinked with Protein L (+XL)” value stood at 26.3 nM.

B3: FS22-172-004/HeID1.3 (bispecific antibody, human IgG1, kappa)
heavy: QVQLQESGPGLVRPSQTLSLTCTVSGSTFSGYGVNWVRQPPGRGLEWIGMIWGDGNTDYNSALKSRVTMLVDTSKNQFSLRLSSVTAADTAVYYCARERDYRLDYWGQGSLVTVSSASTKGPSVFPLAPSSKSTSGGTAALGCLVKDYFPEPVTVSWNSGALTSGVHTFPAVLQSSGLYSLSSVVTVPSSSLGTQTYICNVNHKPSNTKVDKKVEPKSCDKTHTCPPCPAPELLGGPSVFLFPPKPKDTLMISRTPEVTCVVVDVSHEDPEVKFNWYVDGVEVHNAKTKPREEQYNSTYRVVSVLTVLHQDWLNGKEYKCKVSNKALPAPIEKTISKAKGQPREPQVYTLPPSRDELNYIYPPYNQVSLTCLVKGFYPSDIAVEWESNGQPENNYKTTPPVLDSDGSFFLYSKLTVGADRWLEGNVFSCSVMHEALHNHYTQKSLSLSPG
light: DIQMTQSPASLSASVGETVTITCRASGNIHNYLAWYQQKQGKSPQLLVYNAKTLADGVPSRFSGSGSGTQYSLKINSLQPEDFGSYYCQHFWSTPRTFGGGTKLEIKRTVAAPSVFIFPPSDEQLKSGTASVVCLLNNFYPREAKVQWKVDNALQSGNSQESVTEQDSKDSTYSLSSTLTLSKADYEKHKVYACEVTHQGLSSPVTKSFNRGEC
notes: mock mAb^2
Take B3: the dissociation constant Kd in the assay with cCD137-mFc-Avi was 3.5 nM; with hCD137-mFc-Avi it was 4.3 nM. Also, in the assay with hCD137-Avi-His, the “Human monomeric CD137 KD fold difference relative to human dimeric KD” value was over 200 fold. The binding result in the assay with human GITR, with human CD40 and in the assay with human OX40 was “no binding (tested: 1 µM)” throughout.

B4: FS22-053-011/HeID1.3 (bispecific antibody, human IgG1, kappa)
heavy: QVQLQESGPGLVRPSQTLSLTCTVSGSTFSGYGVNWVRQPPGRGLEWIGMIWGDGNTDYNSALKSRVTMLVDTSKNQFSLRLSSVTAADTAVYYCARERDYRLDYWGQGSLVTVSSASTKGPSVFPLAPSSKSTSGGTAALGCLVKDYFPEPVTVSWNSGALTSGVHTFPAVLQSSGLYSLSSVVTVPSSSLGTQTYICNVNHKPSNTKVDKKVEPKSCDKTHTCPPCPAPELLGGPSVFLFPPKPKDTLMISRTPEVTCVVVDVSHEDPEVKFNWYVDGVEVHNAKTKPREEQYNSTYRVVSVLTVLHQDWLNGKEYKCKVSNKALPAPIEKTISKAKGQPREPQVYTLPPSRDELNPPYLFSNQVSLTCLVKGFYPSDIAVEWESNGQPENNYKTTPPVLDSDGSFFLYSKLTVDYWRWTDGNVFSCSVMHEALHNHYTQKSLSLSPG
light: DIQMTQSPASLSASVGETVTITCRASGNIHNYLAWYQQKQGKSPQLLVYNAKTLADGVPSRFSGSGSGTQYSLKINSLQPEDFGSYYCQHFWSTPRTFGGGTKLEIKRTVAAPSVFIFPPSDEQLKSGTASVVCLLNNFYPREAKVQWKVDNALQSGNSQESVTEQDSKDSTYSLSSTLTLSKADYEKHKVYACEVTHQGLSSPVTKSFNRGEC
notes: mock mAb^2; also called FS22-053-011 (mock mAb^2 format)
On to B4, for which the dissociation constant Kd turned out to be 1.3 nM in the assay with cCD137-mFc-Avi and 5.5 nM with hCD137-mFc-Avi. Further, the “Human monomeric CD137 KD fold difference relative to human dimeric KD” value in the assay with hCD137-Avi-His was over 200 fold. In addition, the binding result with human GITR, with human CD40 and with human OX40 was “no binding (tested: 1 µM)” throughout.

B5: FS22-172-003/HeID1.3 (bispecific antibody, human IgG1, kappa)
heavy: QVQLQESGPGLVRPSQTLSLTCTVSGSTFSGYGVNWVRQPPGRGLEWIGMIWGDGNTDYNSALKSRVTMLVDTSKNQFSLRLSSVTAADTAVYYCARERDYRLDYWGQGSLVTVSSASTKGPSVFPLAPSSKSTSGGTAALGCLVKDYFPEPVTVSWNSGALTSGVHTFPAVLQSSGLYSLSSVVTVPSSSLGTQTYICNVNHKPSNTKVDKKVEPKSCDKTHTCPPCPAPELLGGPSVFLFPPKPKDTLMISRTPEVTCVVVDVSHEDPEVKFNWYVDGVEVHNAKTKPREEQYNSTYRVVSVLTVLHQDWLNGKEYKCKVSNKALPAPIEKTISKAKGQPREPQVYTLPPSRDELPYIIPPYNQVSLTCLVKGFYPSDIAVEWESNGQPENNYKTTPPVLDSDGSFFLYSKLTVGADRWLEGNVFSCSVMHEALHNHYTQKSLSLSPG
light: DIQMTQSPASLSASVGETVTITCRASGNIHNYLAWYQQKQGKSPQLLVYNAKTLADGVPSRFSGSGSGTQYSLKINSLQPEDFGSYYCQHFWSTPRTFGGGTKLEIKRTVAAPSVFIFPPSDEQLKSGTASVVCLLNNFYPREAKVQWKVDNALQSGNSQESVTEQDSKDSTYSLSSTLTLSKADYEKHKVYACEVTHQGLSSPVTKSFNRGEC
notes: mock mAb^2 without LALA
On to B5, for which the results for the Kd with cCD137-mFc-Avi and with hCD137-mFc-Avi were 1.3 nM and 1.5 nM, respectively. Besides, in the assay with hCD137-Avi-His, the “Human monomeric CD137 KD fold difference relative to human dimeric KD” value was over 200 fold. The binding result with human GITR, in the assay with human CD40 and with human OX40 was “no binding (tested: 1 µM)” in each case. Further, the “EC50, NF-κB luciferase assay, crosslinked with Protein L (+XL)” value in [3] was 32.6 nM.
